{
  "source": "the nanobody polyreactivity screen of Harvey et al. (2022)",
  "data": [
    {"assay": "yeast display, Sf9 membrane polyspecificity reagent, FACS + sequencing; frameworks hold sequencing errors", "summary_of_the_method": "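Genes from sorted yeast were amplified by colony PCR, read by MiSeq 2 × 250 sequencing and filtered on CDR length. These cells carried a synthetic nanobody library in Saccharomyces cerevisiae BJ5465 and were sorted by FACS into low and high (top ~1%) gates on anti-HA and streptavidin fluorescence. Polyreactivity is labelled according to the gate of origin.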", "values": [
      {"sequence": "QGQRVESGGGLVQAGGSLRLSCAASGLIFSRYGMGWYRPARGKDRELVAAISGGGGSTYYADSVKGRFTISRDNAKNTVYLEMNSLKPEDTAVYYCARKYTRKIPASDYWGQGTQVTVSS", "polyreactivity (PSR sort gate)": "high polyreactivity"},
      {"sequence": "QGQRVESGGVLVQAGGSLRLRCAASGSTFSRYDMGWYRQAPGKERELVATITRAGRTYYADSVKGRFTISRDNAKNTVYLQMNSLIPEDTAVYYCAAELYYWTYVRFDYWGQGTQVTVSS", "polyreactivity (PSR sort gate)": "low polyreactivity"},
      {"sequence": "QHQLEESGGGLVQAGGSLRLSFAAYGFIFGRYTMGWYRQAPVKERELVAAISSRGGSTYYADSVKGGFTISRDYAKYTVYLQMNSLNPEDTAVYSCNALRRPSSEGRDYWGQGTQVTVSS", "polyreactivity (PSR sort gate)": "high polyreactivity"},
      {"sequence": "QHQLVESGAALVQAGGSLLVICAASVFTFPFYTMGWYRQAPGKEMELVAAISTSGAGTYYAESVKGRFTISRDNAKNTVYLQMNSLKTEDTAVYYCAAYKRGRREMDYWGQGTQVTVSS", "polyreactivity (PSR sort gate)": "high polyreactivity"},
      {"sequence": "QHQLVESGGGLFQAGGSLRLSCAPSGSIIVWNAMGWYRQAPGKERELVASMTSGASTYYADSGKGRVTISRDNAKNTVYLQMNSLKPEDTAVYYCAAYYGYTDGWYLYSGYNYWGQGTQVTVSS", "polyreactivity (PSR sort gate)": "low polyreactivity"},
      {"sequence": "QLHLVESGGGLVQAGGSLRLSCAASGRIFFYAMGWYRQAPGKERDLVASITTSGTSTYYADSVKGRFTISRDNSKNTVYLEMNSLKPEDTSVYYCNATSNSIRWYDFYYWGQGTQVTVSS", "polyreactivity (PSR sort gate)": "low polyreactivity"},
      {"sequence": "QLQHVESGGCLVQAGASLRLSCAASRLIFFYYAMGWSRQAPGKERELVAAIRTNYADSVKGRITSSRDNAKNTVYLQMNSQKPEDTAVYYCAAESSQSPTSAFDYWGQGTQVTVSA", "polyreactivity (PSR sort gate)": "low polyreactivity"},
      {"sequence": "QLQHVESGGGLVQAGGSLRLSCADSGFILYLNAMGWYRQAPGKERELVATITNRGGSTYYADTVKGRFTISRDNAKNTVYLQMNSLKPEDTAVYYCAARTRERYSKPYFYRRFGYWGQGTQVTVSS", "polyreactivity (PSR sort gate)": "low polyreactivity"},
      {"sequence": "QLQHVESGGGLVQAGGSLRLTCAASGYTYHGYAMGWYRQAPGKERELVAVITQRGGSTSYADSVKGSFTISRDYAKNNVNLQMKSLKPVDTAVYYCNDSAWLVVARTRYGYWGQGTQVTVSS", "polyreactivity (PSR sort gate)": "low polyreactivity"},
      {"sequence": "QLQLEESGGGLVQAGGTLRISCEASGSTFRPYAMGAYRKAPGQEREMVARITGSGDSTYYADSVKGRFTISRDNAQNTVYLQMNSLKPEDNAVYYCARDFDYSLSGFEYWGQGTQVTVSS", "polyreactivity (PSR sort gate)": "low polyreactivity"},
      {"sequence": "QLQLLESDGGLVQAGVSLRLSCATSAMTISRYTMGWYRQAPGKARELVAVITYRGGSTYYADSVKGRFTISRDNAKNTVYLQMNSLKPEDTAVYYCAAGRRTYGLTYDYWGQGTQVTVSS", "polyreactivity (PSR sort gate)": "high polyreactivity"},
      {"sequence": "QLQLQESGGGLVQAGGSLRLSCAASAFIFARNYMGWYRQAPGKERELVAGIGVGASTNYADSVKGRFTISRDNAKNTVYLQMNSLEPEDTAVYYCAVGDTVLGYHYYWGQGTQVTVSN", "polyreactivity (PSR sort gate)": "low polyreactivity"},
      {"sequence": "QLQLQESVGGLVQAGGSLRLSCAAIGNIFPTDRMGWYSQSPGKELEFVATISHGGSTNNADSVKGRFTISRDNGKNTVYLKMNSLKPEVTAVYYCAVWSLGRWRNYYWGQGSQVTVSS", "polyreactivity (PSR sort gate)": "low polyreactivity"},
      {"sequence": "QLQLVDSGGGLVQAGGSLRLSCAATGFTFYYYVMGWYRQAPGKETELVAAISSRGGSTYYADSVKGRFTISRDNAKNTVYLQMNSLKPEDTAVYYCAATYWPYRPGYYYWGQGTQVTVSS", "polyreactivity (PSR sort gate)": "high polyreactivity"},
      {"sequence": "QLQLVESGAGLVQAGGSLRLSCAASGRIFAYNTMGRYRQAHGKERELVAVITSGGSTNYADYVKGRFTISRDNAKNTVYLQMNSLKPEDTAVYYCAKRPYGGSGGYRYDYWGQGTQVTVSS", "polyreactivity (PSR sort gate)": "high polyreactivity"},
      {"sequence": "QLQLVESGGGIVQAGGSLRLSCAASGSIFPYNAMGWYRQAPGKEREFVAAINLSGGSTNYADSVKGRFTISRDNANYTFYLQMNSLKPEDTAVYYCNAPVVYFLPLNFDYWGQGTKVTVSS", "polyreactivity (PSR sort gate)": "low polyreactivity"},
      {"sequence": "QLQLVESGGGLDQAGCSLRLSCAASRTIITRNAMGWYRPAPGKESELVASINSGGSTYYADSVKGRFTISRDNAKNTVYLQMNSLKPDDTAVYYCAVEEDRYYYDDYDYWGQGTQVTVSS", "polyreactivity (PSR sort gate)": "low polyreactivity"},
      {"sequence": "QLQLVESGGGLDQAGGSLRLSCAASGSIFPGYAMGWYRQAPGKESELVATITWSGGSTYYADSVKGRFTISRDNAKNTVYLQMNSLKPEDTAVYYCNADSNWYYQWNYYGLYDYWGQGTQVTVSS", "polyreactivity (PSR sort gate)": "low polyreactivity"},
      {"sequence": "QLQLVESGGGLGQSGGSIRLSCAASGFIFPVYTMGRSRQAPGKERELVAAITQIGGSTHYADSVKGRFTISRDNAKNTVYLQMNSLKPEDTAVYYCNAVPSYGTEYDYWGQGTQVTVSS", "polyreactivity (PSR sort gate)": "low polyreactivity"},
      {"sequence": "QLQLVESGGGLLQAGGSLRLSCAASGSTFVSNAMGWYRQAPGKERELVATITTSGGSTYYADSVKGRFRNSRDNAKTTVYLQMNSLNPEDTAVYYCNAVYLFCYSGDLDYWGQGTQVTVSS", "polyreactivity (PSR sort gate)": "low polyreactivity"},
      {"sequence": "QLQLVESGGGLVKAGGSLRLSCAASGFIFNCYAMGWNRQAPVKEREMVARISRSGGSTYYADSVKGRFTISRDNAKNTVYLQMNSLKPEDTAVYYCAADYYWSLHQRMDYWGQGTQVTVSS", "polyreactivity (PSR sort gate)": "high polyreactivity"},
      {"sequence": "QLQLVESGGGLVQAGGRLRLSCAASGFIFHINARGWYRQAPGKEREFVAAISRSVGSTSYADTVKGRFTNSRDNAKNTVYLLMNSLKPEDTAVYYCNAALRKRKGPYDYWGQGTQVTVSS", "polyreactivity (PSR sort gate)": "high polyreactivity"},
      {"sequence": "QLQLVESGGGLVQAGGSLRFSCAASGFTFVWYVRGWYRQAPVKARELVASSTSTGSTNYADSVKGRYTISRDNAKNTVYLQMNSLKPEDTAVYYCNARGSYKRTRYGKWGQGTQVTVSS", "polyreactivity (PSR sort gate)": "high polyreactivity"},
      {"sequence": "QLQLVESGGGLVQAGGSLRLICAASGLTFVHYTMGWYRQAPGKERELVAAISWNGASTYYADSVKGRFTISRDNAKNTVDIQMNSLKPEDTAVYYCAAGYAQPRYYTDYYWGEGTQVTVSS", "polyreactivity (PSR sort gate)": "high polyreactivity"},
      {"sequence": "QLQLVESGGGLVQAGGSLRLSCAASGFTFSYYAKGWYRQAPGKERELVAAISINGGRTYYADSVKGRFTISRDNAKNTVYLQMNSLKPEDTAVYYCNAVSYAYTVRMDYWGQGTQVTVSS", "polyreactivity (PSR sort gate)": "high polyreactivity"},
      {"sequence": "QLQLVESGGGLVQAGGSLRLSCAASGFTFYLYVLGWYRQAPGKEREFVAAITGSGTSTYYADSVKGRFTISRDNAKNTVYLQMNSLKPEDTAVYYCNAKRDRYFYTVKYDYWGQGTQVTVSS", "polyreactivity (PSR sort gate)": "low polyreactivity"},
      {"sequence": "QLQLVESGGGLVQAGGSLRLSCAASGFTFYRYAKGWYRQAPGKARELVAAISWSGGTTYFADSVKGRFTISRDNAKNTVYLQMNSLTPEDTAVEYCNARFIARSGYKVDYDYWGQGTQVTVSS", "polyreactivity (PSR sort gate)": "high polyreactivity"},
      {"sequence": "QLQLVESGGGLVQAGGSLRLSCAASGGPFRPYAMGWYRQAPGKERELVAAISYTGSTYYADSVKGRFTISRDNAKNTVYLQMNSLKPEDTAVYYCAKDFWYPPRFDYWGQGTQVTVSS", "polyreactivity (PSR sort gate)": "low polyreactivity"},
      {"sequence": "QLQLVESGGGLVQAGGSLRLSCAASGGTFYTNAMGRYRQAPGKEREFVAAISWIGGSTRYADSVKGRFTISRDNAKNTVYLQMNSLKPEDTEVYFCAAEDVFWVGEYYYEMDYWGQGTQVTVSS", "polyreactivity (PSR sort gate)": "high polyreactivity"},
      {"sequence": "QLQLVESGGGLVQAGGSLRLSCAASGIIFDFYAMGWYRQAPGKERELVAAITSSGGSTYYADSVKGRFTISRDNAKNTVYLQMNSLKPEDTAVYYCAADPWFYGYYDMDYWGQGTQVTVSS", "polyreactivity (PSR sort gate)": "low polyreactivity"},
      {"sequence": "QLQLVESGGGLVQAGGSLRLSCAASGITFYGYAMGWYRQAPGKERELVAAISSRGGSTYYADSVKGRFTISRDNAKNTVYLQMNRLKPEDTAVYYCAAVYYTGEYYYWGQGTQVTVSS", "polyreactivity (PSR sort gate)": "high polyreactivity"},
      {"sequence": "QLQLVESGGGLVQAGGSLRLSCAASGLIFYDNMGWYRQAPGKERELVAAISSSGGSTSYADSVKGRFTISRDNAKNTVYLHMNSLKPEDTAVYYCAADSYPAYLGFVGFDYWGQGTQVTVSS", "polyreactivity (PSR sort gate)": "low polyreactivity"},
      {"sequence": "QLQLVESGGGLVQAGGSLRLSCAASGLTFYWYAMGWYRQAPGKERELVAAITSTGSTYYADSVKGRFTISRDNAKNTVYLQMNILKPEDTAVYYCNADFPANWGWDYDYWGQGTQVTVSS", "polyreactivity (PSR sort gate)": "low polyreactivity"},
      {"sequence": "QLQLVESGGGLVQAGGSLRLSCAASGRTFFKYVMGWYRQAPGKERELVAAISYRSGSTYYADSVKGRFTISRDNAKNTVYLQMNSLKPEDTAVYYCAKEPPPVKGDYWGQGTQVTVSS", "polyreactivity (PSR sort gate)": "low polyreactivity"},
      {"sequence": "QLQLVESGGGLVQAGGSLRLSCAASGRTFPGNAMGWYRQEPGKERELVATITWSSGRTHYADSVKGRFTISRDNAKNTVYLQMNSLKPEDTAVYYCAAKWIVAVGGFYYWGQGTQVTVSS", "polyreactivity (PSR sort gate)": "low polyreactivity"},
      {"sequence": "QLQLVESGGGLVQAGGSLRLSCAASGRTFVYNVMGWYRQAPGKERELVAAISSGGSTNYADSVKGRFTNSRDNAKNTVYLQMNRLKPEDSAVYYCNAGTLNYRYRWGHYYDSWGQGTQVTVSS", "polyreactivity (PSR sort gate)": "low polyreactivity"},
      {"sequence": "QLQLVESGGGLVQAGGSLRLSCAASGSIFKPYALRCYIQAPGKERELVAAITRSGGSTYYADSVKGRFTISRDNAKNTVYLQMNSLKPEDTAVYYCAAGNAPYYRFGSKKYGYWGQGTQVTVSS", "polyreactivity (PSR sort gate)": "high polyreactivity"},
      {"sequence": "QLQLVESGGGLVQAGGSLRLSCAASGSILGSYAMGWYRQAPGKERELVAAITRRGSSTYYADSVKGRFTISRDNAKNTVYLQMNSLKPEDTAVYYCAVYRRWYSGLYDYWGQGTQVTVSS", "polyreactivity (PSR sort gate)": "high polyreactivity"},
      {"sequence": "QLQLVESGGGLVQAGGSLRLSCAASGSIYYEKVMGWYRQAPGKERELVAGISRSGGRTYYADSVKGRFTISRDNAKNTVYLQMNSLKPEDTAVYYCAALTPRNRYRKFDYWGQGTQVTVSS", "polyreactivity (PSR sort gate)": "high polyreactivity"},
      {"sequence": "QLQLVESGGGLVQAGGSLRLSCAASGSTFATYAMGWYRQAPGKESELVAVITRGGSTYYADSVKGRFTISRDNAKNTVYLQMNSLKPEDTAVYYCAAKAYTYYARIGFDYWGQGTQVTVSS", "polyreactivity (PSR sort gate)": "high polyreactivity"},
      {"sequence": "QLQLVESGGGLVQAGGSLRLSCAASGSTFGSNAMGWYRQAPGKERELVAAISTSSGSTYYAVSVKGRFTISRDNAMNTVYLQMNSMKPEDTAVYYCNADRHYVPYYSRPRYIPYDYWGQGTQVTVSS", "polyreactivity (PSR sort gate)": "high polyreactivity"},
      {"sequence": "QLQLVESGGGLVQAGGSLRLSCAASGSTFNYNAMGWYRQAPGKEREFVAAISRSGGSTSYADSVKGRFTISRDNAKNTVYLQMNSLKPEDTAVYYCAAYYRKTGYDYWGQGTQVTVSS", "polyreactivity (PSR sort gate)": "high polyreactivity"},
      {"sequence": "QLQLVESGGGLVQAGGSLRLSCAASGSTFSVYAMGWYRPAPGKERELVAAISSGGNTKYADSVKGRFTISRDNAKNTVYLQMNSLKPEDTAVYYCNADSQRPAYWDGYWGQGTQVTVSS", "polyreactivity (PSR sort gate)": "low polyreactivity"}
    ]}
  ]
}
